Test results from publication PMC6614540.

Assays:
[1] = biological target: Gh-TDH D78A mutant (Grimontia hollisae); assay: native gel or EMSA; native PAGE, 10% polyacrylamide gel, no SDS, 4 °C, running buffer 90 mM Tris-base, 2.5 mM EDTA, 80 mM boric acid pH 8.0, 90 V for 3 h, Coomassie stain
[2] = biological target: Gh-TDH F159D mutant (Grimontia hollisae); assay: as above
[3] = biological target: Gh-TDH F159D mutant (Grimontia hollisae); assay: AUC; 1 mg/mL protein in 20 mM Tris-HCl pH 7.2, 42,000 rpm, 20 °C, 280 nm; c(s) distribution and apparent molecular mass
[4] = biological target: Gh-TDH F159D mutant (Grimontia hollisae)
[5] = biological target: Gh-TDH Y53D mutant (Grimontia hollisae); assay: native gel or EMSA; native PAGE, 10% polyacrylamide gel, no SDS, 4 °C, running buffer 90 mM Tris-base, 2.5 mM EDTA, 80 mM boric acid pH 8.0, 90 V for 3 h, Coomassie stain
[6] = biological target: Gh-TDH Y53D mutant (Grimontia hollisae); assay: AUC; 1 mg/mL protein in 20 mM Tris-HCl pH 7.2, 42,000 rpm, 20 °C, 280 nm; c(s) distribution and apparent molecular mass
[7] = biological target: Gh-TDH Y53D mutant (Grimontia hollisae)
[8] = biological target: Gh-TDH Y53D/F159D double mutant (Grimontia hollisae)
[9] = biological target: Grimontia hollisae thermostable direct hemolysin, wild type (Grimontia hollisae); assay: AUC; 1 mg/mL protein in 20 mM Tris-HCl pH 7.2, 42,000 rpm, 20 °C, 280 nm; c(s) distribution and apparent molecular mass

Gh-TDH D78A mutant (natural protein) gave a stoichiometry N [1] of 4.

Substance Gh-TDH F159D mutant (natural protein) has a stoichiometry N [2] of 2, a stoichiometry N [3] of 2 and a hemolytic activity on rabbit erythrocytes, decrease against Gh-TDH^WT [4] of 10 fold.

With Gh-TDH Y53D mutant (natural protein) the stoichiometry N [5] was 2, the stoichiometry N [6] was 2 and the hemolytic activity on rabbit erythrocytes, decrease against Gh-TDH^WT [7] was 20 fold.

With “Gh-TDH Y53D/F159D double mutant (natural protein)” the hemolytic activity on rabbit erythrocytes, drop against Gh-TDH^WT [8] was 200 fold.

Work on “Grimontia hollisae thermostable direct hemolysin, wild type (natural protein)” yielded a stoichiometry N [9] of 4.
